Laboratory results: patent US20230295597

T1: von Willebrand factor (vWF), substrate of the ADAMTS-13 activity assay, P04275
T1 chain: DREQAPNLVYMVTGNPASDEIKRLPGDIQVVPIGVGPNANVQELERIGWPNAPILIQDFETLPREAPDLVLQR


Assays:
[1] = molecular target: T1, von Willebrand factor (vWF), substrate …
[2] = molecular target: anti ADAMTS-13 autoantibodies in plasma from patients with acquired ADAMTS-13 deficiency (TTP plasma)
[3] = molecular target: ultralarge von Willebrand factor multimers present in human plasma, P04275

Protein	catalytic activity on vWF [1]	also measured
trADAMTS-13^V313D (truncated ADAMTS-13 mutant, Val313 to Asp) (protein) AAGGILHLELLVAVGPDVFQAHQEDTERYVLTNLNIGAELLRDPSLGAQFRVHLVKMVILTEPEGAPNITANLTSSLLSVCGWSQTINPEDDTDPGHADLVLYITRFDLELPDGNRQVRGVTQLGGACSPTWSCLITEDTGFDLGVTIAHEIGHSFGLEHDGAPGSGCGPSGHVMASDGAAPRAGLAWSPCSRRQLLSLLSAGRARCVWDPPRPQPGSAGHPPDAQPGLYYSANEQCRDAFGPKAVACTFAREHLDMCQALSCHTDPLDQSSCSRLLVPLLDGTECGVEKWCSKGRCRSLVELTPIAAVHGRWSSWGPRSPCSRSCGGGVVTRRRQCNNPRPAFGGRACVGADLQAEMCNTQACEKTQLEFMSQQCARTDGQPLRSSPGGASFYHWGAAVPHSQGDALCRHMCRAIGESFIMKRGDSFLDGTRCMPSGPREDGTLSLCVSGSCRTFGCDGRMDSQQVWDRCQVCGGDNSTCSPRKGSFTAGRAREYVTFLTVTPNLTSVYIANHRPLFTHLAVRIGGRYVVAGKMSISPNTTYPSLLEDGRVEYRVALTEDRLPRLEEIRIWGPLQEDADIQVYRRYGEEYGNLTRPDITFTYFQPKPRQADYKDHDGDYKDHDIDYKDDDDK		decrease of proteolytic activity on vWF against the un-mutated variant [1]: replacing V^313 with D (trADAMTS-13^V313D) decreased by more than 50% the proteolytic activity of the resultant ADAMTS-13 variant on vWF (FIG. 6B)
trADAMTS-13^R312K (truncated ADAMTS-13 mutant, Arg312 to Lys) (protein) AAGGILHLELLVAVGPDVFQAHQEDTERYVLTNLNIGAELLRDPSLGAQFRVHLVKMVILTEPEGAPNITANLTSSLLSVCGWSQTINPEDDTDPGHADLVLYITRFDLELPDGNRQVRGVTQLGGACSPTWSCLITEDTGFDLGVTIAHEIGHSFGLEHDGAPGSGCGPSGHVMASDGAAPRAGLAWSPCSRRQLLSLLSAGRARCVWDPPRPQPGSAGHPPDAQPGLYYSANEQCKVAFGPKAVACTFAREHLDMCQALSCHTDPLDQSSCSRLLVPLLDGTECGVEKWCSKGRCRSLVELTPIAAVHGRWSSWGPRSPCSRSCGGGVVTRRRQCNNPRPAFGGRACVGADLQAEMCNTQACEKTQLEFMSQQCARTDGQPLRSSPGGASFYHWGAAVPHSQGDALCRHMCRAIGESFIMKRGDSFLDGTRCMPSGPREDGTLSLCVSGSCRTFGCDGRMDSQQVWDRCQVCGGDNSTCSPRKGSFTAGRAREYVTFLTVTPNLTSVYIANHRPLFTHLAVRIGGRYVVAGKMSISPNTTYPSLLEDGRVEYRVALTEDRLPRLEEIRIWGPLQEDADIQVYRRYGEEYGNLTRPDITFTYFQPKPRQADYKDHDGDYKDHDIDYKDDDDK	trADAMTS-13^R312K was the most potent variant exhibiting enhanced proteolytic activity on vWF (FIG. 6B), in comparison with the un-mutated protein trADAMTS-13 WT	proteolytic activity on vWF after 2 hours or 24 hours with TTP plasma [2]: The substantial resistance to inhibition of trADAMTS-13^R312K was shown around 2 hours up to 24 hours following incubation with TTP plasma (FIG. 9B)
trADAMTS-13^V313A (truncated ADAMTS-13 mutant, Val313 to Ala) (protein) AAGGILHLELLVAVGPDVFQAHQEDTERYVLTNLNIGAELLRDPSLGAQFRVHLVKMVILTEPEGAPNITANLTSSLLSVCGWSQTINPEDDTDPGHADLVLYITRFDLELPDGNRQVRGVTQLGGACSPTWSCLITEDTGFDLGVTIAHEIGHSFGLEHDGAPGSGCGPSGHVMASDGAAPRAGLAWSPCSRRQLLSLLSAGRARCVWDPPRPQPGSAGHPPDAQPGLYYSANEQCRAAFGPKAVACTFAREHLDMCQALSCHTDPLDQSSCSRLLVPLLDGTECGVEKWCSKGRCRSLVELTPIAAVHGRWSSWGPRSPCSRSCGGGVVTRRRQCNNPRPAFGGRACVGADLQAEMCNTQACEKTQLEFMSQQCARTDGQPLRSSPGGASFYHWGAAVPHSQGDALCRHMCRAIGESFIMKRGDSFLDGTRCMPSGPREDGTLSLCVSGSCRTFGCDGRMDSQQVWDRCQVCGGDNSTCSPRKGSFTAGRAREYVTFLTVTPNLTSVYIANHRPLFTHLAVRIGGRYVVAGKMSISPNTTYPSLLEDGRVEYRVALTEDRLPRLEEIRIWGPLQEDADIQVYRRYGEEYGNLTRPDITFTYFQPKPRQADYKDHDGDYKDHDIDYKDDDDK	Replacing V^313 with A (trADAMTS-13^V313A), also had no significant effect on its proteolytic activity on vWF (FIG. 6B)	
trADAMTS-13^R312A (truncated ADAMTS-13 mutant, Arg312 to Ala) (protein) AAGGILHLELLVAVGPDVFQAHQEDTERYVLTNLNIGAELLRDPSLGAQFRVHLVKMVILTEPEGAPNITANLTSSLLSVCGWSQTINPEDDTDPGHADLVLYITRFDLELPDGNRQVRGVTQLGGACSPTWSCLITEDTGFDLGVTIAHEIGHSFGLEHDGAPGSGCGPSGHVMASDGAAPRAGLAWSPCSRRQLLSLLSAGRARCVWDPPRPQPGSAGHPPDAQPGLYYSANEQCAVAFGPKAVACTFAREHLDMCQALSCHTDPLDQSSCSRLLVPLLDGTECGVEKWCSKGRCRSLVELTPIAAVHGRWSSWGPRSPCSRSCGGGVVTRRRQCNNPRPAFGGRACVGADLQAEMCNTQACEKTQLEFMSQQCARTDGQPLRSSPGGASFYHWGAAVPHSQGDALCRHMCRAIGESFIMKRGDSFLDGTRCMPSGPREDGTLSLCVSGSCRTFGCDGRMDSQQVWDRCQVCGGDNSTCSPRKGSFTAGRAREYVTFLTVTPNLTSVYIANHRPLFTHLAVRIGGRYVVAGKMSISPNTTYPSLLEDGRVEYRVALTEDRLPRLEEIRIWGPLQEDADIQVYRRYGEEYGNLTRPDITFTYFQPKPRQADYKDHDGDYKDHDIDYKDDDDK	trADAMTS-13^R312A catalytic activity was not affected significantly by replacing R^312 with A (FIG. 6B)	
truncated recombinant human ADAMTS-13 variant (MDTCS), trADAMTS-13 WT (protein) RSAAGGILHLELLVAVGPDVFQAHQEDTERYVLTNLNIGAELLRDPSLGAQFRVHLVKMVILTEPEGAPNITANLTSSLLSVCGWSQTINPEDDTDPGHADLVLYITRFDLELPDGNRQVRGVTQLGGACSPTWSCLITEDTGFDLGVTIAHEIGHSFGLEHDGAPGSGCGPSGHVMASDGAAPRAGLAWSPCSRRQLLSLLSAGRARCVWDPPRPQPGSAGHPPDAQPGLYYSANEQCRVAFGPKAVACTFAREHLDMCQALSCHTDPLDQSSCSRLLVPLLDGTECGVEKWCSKGRCRSLVELTPIAAVHGRWSSWGPRSPCSRSCGGGVVTRRRQCNNPRPAFGGRACVGADLQAEMCNTQACEKTQLEFMSQQCARTDGQPLRSSPGGASFYHWGAAVPHSQGDALCRHMCRAIGESFIMKRGDSFLDGTRCMPSGPREDGTLSLCVSGSCRTFGCDGRMDSQQVWDRCQVCGGDNSTCSPRKGSFTAGRAREYVTFLTVTPNLTSVYIANHRPLFTHLAVRIGGRYVVAGKMSISPNTTYPSLLEDGRVEYRVALTEDRLPRLEEIRIWGPLQEDADIQVYRRYGEEYGNLTRPDITFTYFQPKPRQADYKDHDGDYKDHDIDYKDDDDK		proteolysis of vWF multimers in human plasma, trADAMTS-13 300 nM, Western blot with anti-vWF antibody [3]: the inactivation of trADAMTS-13 by tPA prevented the proteolysis of ULvWV multimers present in human plasma (FIG. 4D)
